{"source": "paper PMC13051815", "origin": "cited, not measured here", "key": {"[1]": {"target": "Bim BH3 peptide 86-111 (Homo sapiens) (UniProt O43521)", "sequence (O43521 86-111)": "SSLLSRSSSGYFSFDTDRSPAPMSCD", "experiment": "ITC"}, "[2]": {"target": "Bim BH3 peptide 86-111 (Homo sapiens) (UniProt O43521)", "experiment": "fluorescence polarization"}}, "data": [{"substance": "Hsp70 NBD (from UniProt P0DMV8)", "values": [{"measurement": "Kd", "setting": "[1]", "result": 400, "unit": "nM"}, {"measurement": "Kd", "setting": "[2]", "result": "> 30000", "unit": "nM"}]}]}
